Results as given in the DeepSol protein solubility set.

Assay: soluble on expression in E. coli; label from the status in PepcDB or PDB records

Sequence	soluble on expression in E. coli
MRGSHHHHHHGSMQILLANPRGFCAGVDRAISIVENALAIYGAPIYVRHEVVHNRYVVDSLRERGAIFIEQISEVPDGAILIFSAHGVSQAVRNEAKSRDLTVFDATCPLVTKVHMEVARASRRGEESILIGHAGHPEVEGTMGQYSNPEGGMYLVESPDDVWKLTVKNEEKLSFMTQTTLSVDDTSDVIDALRKRFPKIVGPRKDDICYATTNRQEAVRALAEQAEVVLVVGSKNSSNSNRLAELAQRMGKRAFLIDDAKDIQEEWVKEVKCVGVTAGASAPDILVQNVVARLQQLGGGEAIPLEGREENIVFEVPKELRVDIREVD	soluble
HDFASWVSGDSMEPKYHNGSVTLIRETGFDYDGAVYAVVCNSQTYIKRVYLEAEGLRLKYKDIFISYDEDPRVVRIIIGNFIPL	not soluble
MMFDRRFFALVVLLCVSAVRSTEDASDDELNYEMDEGVVVLTDKNFDAFLKKNPSVLVKFYAPWCGHCKHLAPEYEKASSKVSIPLAKVDATVETELGKRFEIQGYPTLKFWKDGKGPNDYDGGRDEAGIVEWVESRVDPNYKPPPEEVVTLTTENFDDFISNNELVLVEFYAPWCGHCKKLAPEYEKAAQKLKAQGSKVKLGKVDATIEKDLGTKYGVSGYPTMKIIRNGRRFDYNGPREAAGIIKYMTDQSKPAAKKLPKLKDVERFMSKDDVTIIGFFATEDSTAFEAFSDSAEMLREEFKTMGHTSDPAAFKKWDAKPNDIIIFYPSLFHSKFEPKSRTYNKAAATSEDLLAFFREHSAPLVGKMTKKNAATRYTKKPLVVVYYNADFSVQYREGSEYWRSKVLNIAQKYQKDKYKFAVADEEEFAKELEELGLGDSGLEHNVVVFGYDGKKYPMNPDEFDGELDENLEAFMKQISSGKAKAHVKSAPAPKDDKGPVKTVVGSNFDKIVNDESKDVLIEFYAPWCGHCKSFESKYVELAQALKKTQPNVVLAKMDATINDAPSQFAVEGFPTIYFAPAGKKSEPIKYSGNRDLEDLKKFMTKHGVKSFQKKDEL	not soluble
MSRQRLGKSMIKANSWSSNLNAYRILQEPQSLTEEPPPIQTICPVQPESMAPPEHHNHRHLVTQEENRGRHLVGNPMRRTRSDVGAHGLTPHQPLLTRSKSDHGLERVATPLAFEVQSVGSEQTASSAEVMTAAGRRHSLLTDYQAAIARPLDLDRVLAAVKLRAAAEIYCKKNNLARLSPRPPRTSAGNQRLDALVNRPVDELIAEVQAAPRKFSRTQLTDVAQRHLLAALNIDIDQYKKGVHKAGLYEGLHSVAGRLVSVAAAAVSAGVSEVPGVSKTVTKTVKILSHQLPSSVVNPALTGGLRSVTDVMESFKRVGGLPVLSPQIDKSPDMGKIVKAAREMRGQLDEAVGHFARAHKSDPQALPRLVDAFLALHGVADRQYRRRIGLNRTQTYGKGWGMAVNGVAAIGTVVSTTVPVVGQVAGPAILASTIPLQWGAGYLDERRNKHRYNLRANTKWGDFLKDNAANIHFKDLTVEHISESKLRQSFLTQPEVQIAAIREVYEDTIGELMRRRLEMQKDIDVQREAGRPMRALALKQLRELDAEIDVTKMHADQFESFNMDRWSAIPEDSVIGRCLDDLDNLQKANRRARLRKPGEGAQIVQRYVQAFQGGVSTGTTLPVVDAVASIDSFHVHDSQGHDHGLQPAPLAVAAGTGAAGGAVFTGATGEVRMSKADNKKIMTQLRVDPEVYTADAEHWRFRAGNRDVDLRTSAGYKQHAHTRWDELALVAQALKHGLTSGPVGLKNLAVAKVELRQARASLQSALDALAASGLPHRTPDSARAPTISSMKDQLYDYSEVRRHLGV	not soluble
MNKAYYIGLMSGTSMDGVDAVLVDFAGEQPQLIGTHTETIPTHLLKGLQRLCLPGTDEINRLGRLDRSVGKLFALAVNNLLAKTKIAKDEIIAIGSHGQTVRHMPNLEVGFTLQIGDPNTIATETGIDVIADFRRKDIALGGQGAPLVPAFHQQTFAQVGKKRVILNIGGIANITYLPGNSEEVLGFDTGPGNTLIDAWVQQVKNESYDKNGAWAASGKTDPQLLAQLLSHPYFSLAYPKSTGRELFNQAWLEQQLSAFNQLNEEDIQSTLLDLTCHSIAQDILKLAQEGELFVCGGGAFNAELMQRLAALLPGYRIDTTSALGVDPKWAEGIAFAWLAMRYQLGLPANLPAVTGASREAILGGRFSAK	soluble
MGSDKIHHHHHHMTTATQSSAPGVNVDQAEVEKFSALAARWWDPESEFKPLHAINPLRLGWIQETAGSLSGKRVLDMGCGGGILSESMAVAGAQVTGIDLAEKSLKIARLHGLESGVKVDYRAVPVEELAAEQPGQYDVVTCMEMLEHVPDPASVVRACAALAKPGGWVFFSTLNRNPKSFLFAIVGAEYVLRLLPRGTHSYDSFIKPSELATSARQAGLEPTGMRGMEYNPITQVYSLSANTSVNYLMSTRK	not soluble
MGSDKIHHHHHHMSRLVVKNLTKIFSLGFFSKRRIEAVKNVSFEVKEKEIVSLVGESGSGKTTTAKMILRLLPPTSGEIYFEGKDIWKDIKDRESLVEFRRKVHAVFQDPFASYNPFYPVERTLWQAISLLENKPSNKKEALELIKESLFRVGIDPKDVLGKYPHQISGGQKQRIMIARCWILRPLLIVADEPTSMIDASSRGGIIKLLEELREEQGTSIIFITHDLGLAYYVSDNIFVMKNGEIVERGHPDKVVLEPTHEYTKLLVGSIPKLYRKLEDL	not soluble
AIAEALWTNKIEDPLSLMSFTVPPLRLLSAAMWQVTERRQVKHYGMLEEFVSLVTETIPELLNQHQRAQLILGLRARHLLELCRGKHQGSLKEIQPHLKRLCRPRVNKEFADEDMEESEACFLDLVRTLISNPKEKEHYFQNIFPEEYGPKFDKNLHALMEDFLLKLDRMVSVPDLSETVSWLRTCPSLLDDCIDSVSVPKDMKSLLEHHTAKGNLQDSEGNNCTFSSQSLPPLVQVVISSDHTESGEPSDLNGQDNDDEQASKTSSDGWTIKKIKLKTETEEEDNDQNWPITEAKSTGTRDGYDDGCLGEEPNQTQS	soluble
MDAFRLAPCGPLRGRLRVPGDKSVTHRGLMLLALAEGEGRLFYPLKAGDTLSTARVLQALGAEVREEGPHFLVRGRGLRFQEPEDVLDCGNAGTLMRLLLGLLAGQEGLFAVLTGDASLRRRPMGRVVAPLRAMGARVDGREEGERAPLAVRGAPLRGLRYTLPVPSAQVKSALLLAGLFAEGVTKVEEPTPTRDHTERLFRHFGLPLEVEGRKVRTWRTGPFPAKDLVVPGDFSSAAFFLVAALVTPGSEVVVEGVGLNPTRTGLLTVLKAMGADLEWQVLEGEAGEPVGWVRARHSLLKGVAVDPGLIPLMVDEVPVLAAAAAWAEGETYIPGLSELRVKESDRVRAIAENLRALGVEVEEGPDWLRIRGGGVRPGRVRPFHDHRIAMAFAVAGLPVGVEVEEPHWAEISYPGFFQDLLRLCAAS	soluble
MGSDKIHHHHHHMNTLTDILNRPRKLRPECLLIVGDSNMGKTTIIHEFARQYYTKTVSDADMDLLSVTKPVLPILAPAKANVKELYINILNHFFVPFRASDPEAKLRNQAVHLMRKYETKMLIIDEIHNCLTGSAKLLPEVMNTLKNLSNELSLNIVGVGTREAITILHTDPQYASRFDVVNLPKWELNQDFLRLLVSYVRLLPLKKQSNLASKEIATLIFEVSGGNLGDLNRLLVECAKEAILQGDEEITYDIVHKFKWLKPTEGLRNIRNINLSLS	not soluble
MGSDKIHHHHHHMPNHDALAGGKVHLRRGVDLQVSHSPGVYPPLVFIHGGTGNRFNFRMQYEFAQAQGWEVLAYDLGGNGQSSRYSRYSIGRHCRDLARLLVRFGVESPVLCCHSYGVPIGLEFVQHHPVSAIIAIAGGTHDLAPWWEIPLMKFMAGGGRYLLHLPGVQKINKLLSTSYSHSVMERFFVENPPPTDFDAYKGLEIFWDYNFFIRHPLPKNLHIPALVITADKDPTFTANMGDELANHFDDGTHLHFAKGGHLVMAESAELVNEAIANWLIQKLTIN	not soluble
SAETEALSKLREDFRMQNKSVFILGASGETGRVLLKEILEQGLFSKVTLIGRRKLTFDEEAYKNVNQEVVDFEKLDDYASAFQGHDVGFCCLGTTRGKAGAEGFVRVDRDYVLKSAELAKAGGCKHFNLLSSKGADKSSNFLYLQVKGEVEAKVEELKFDRYSVFRPGVLLCDRQESRPGEWLVRKFFGSLPDSWARGHSVPVVTVVRAMLNNVVRPRDKQMELLENKAIHDLGKAHGSLKP	soluble
MHHHHHHSSGVDLGTENLYFQSMNNVEKPDNDEDESEVPSLPLGLTGAFEDTSFASLCNLVNENTLKAIKEMGFTNMTEIQHKSIRPLLEGRDLLAAAKTGSGKTLAFLIPAVELIVKLRFMPRNGTGVLILSPTRELAMQTFGVLKELMTHHVHTYGLIMGGSNRSAEAQKLGNGINIIVATPGRLLDHMQNTPGFMYKNLQCLVIDEADRILDVGFEEELKQIIKLLPTRRQTMLFSATQTRKVEDLARISLKKEPLYVG	soluble
GSMTEETHPDDDSYIVRVKAVVMTRDDSSGGWFPQEGGGISRVGVCKVMHPEGNGRSGFLIHGERQKDKLVVLECYVRKDLVYTKANPTFHHWKVDNRKFGLTFQSPADARAFDRGVRKAIEDLIE	soluble
MSLVYTEVPKSVATFMETITEKCGEAHQDWAKNFQAAFANTLLTTVKRQEDGTTFLLTGDIPAMWLRDSTAQVRPYLVIAKEDEDLAQMIAGLVKRQFRYICIDPYANAFNETDNHAGHQTDKTEMNGWIWERKYEIDSLCYPVQLAYLLYKNTGMTEQFNSDFVEGVKKILNVFTTEQDHAQSPYLFERDTWRQEDTLVEAGKGTPVGKTGMTWSGFRPSDDACQYGYLVPSNMFAVVILGYIQEIFSDVLEDATIGAIAKKLQEEIEEGIQTFGRTKNQNNETIYAYEVDGLGNASVMDDSNVPNLVAAPYLGYCSTEDEQYLTTRQTLLSKENPYFYEGKYAKGIGSSHTPENYVWPIALAMEGMTTKDKAEKERILDLLVATDAGTHLMHEGFDVDNPENYTREWFSWANMMFCELVMDYFDIRVEKEGGSHHHHHH	soluble
MNALTPLSARLERSDGHALVTLARSRGAVRLRDLAQRGSAKAFLPRVEGDVPEVVFLNTSGGLTGGDRLSYRLEVGEGCRATATTQTAERAYAAGAGAARVEVLHEVGRDGWLDWLPQETILFEGAALERETQISLAPGAGCLMVESVVLGRAAMGETLSRLAFRDRRSILRGGKPVVVEPLALDDRALAAAGGAAMLGGARALATLAMVGPGAEDALGPARAALGEAGVEAAASAFDGKLVLRLLAADGWPLRRQVARLLTVLRGRALPRVWQVLEHHHHHH	not soluble
AMAEAYQIQSNGDPQSKPLLELYVKASGIDARRIGADLFCQEFWMELYALYEIGVARVEVKTVNVNSEAFKKNFLGAQPPIMIEEEKELTYTDNREIEGRIFHLAKEFNVPLFEKDPSAEKRIENLYRNFKLFLRAKVEFDKGKKEPSRVEDLPAQIKVHYNRVCEQLSNIDQLLSERKSRYLLGNSMTEYDCELMPRLHHIRIIGLSLLGFDIPHNFTHLWAYILTAYRTAAFIESCPADQDIIHHYKEQMNLFTNQRETLQSPTKTHTIPEKVLSDIRVKGLAPDVNVH	soluble
MSLTETILSVGIDLGTSTTQLILSELEIQNMASSFTVPRIVISDKRIIFRSEILFTPILADNLIDVEAIRDFVTKEYANAGIKKEEIGMGAVIITGETARKDNASNVLDAMSGFAGDFVVATAGPDLESIIAGKGAGAHTYAKENNTSVVNLDIGGGTTNLSLFDRGELIDTACLDIGGRLIKVDRETRKITYIAPKIQALIEKRGYPVKLGETTSPENLQPVLGEMVELLKNSVGLGAPNDFYKTIITNKGLKFLTEIECISFSGGVADCISTGALSDPFRYGDIGLLLGKAIAESSLMTEKKYIESVETIRATVVGAGSHTAEISGSTITYTEKIFPVKNIPILKLAKQEEDENMAEVIKEKLSWFKIENEMEHIALAIEGENSPSFQQVTEYAKAICEGMKEPIALGHPLIIITWHDMAKALGQSIFGHLPAGHPLICLDSVKVDNGDYIDIGKPVADGKVLPVVVKTLVFNEGHHHHHH	soluble
